Series [1] deals with T1, lamin A/C Ig-fold domain (aa 411-566) (human, UniProt P02545 411-566).
T1 construct: human lamin A/C fragment from aa 411 to aa 566 (Ig-fold domain); 15N-labelled (grown in M9) for the NMR experiments; also called Igfold domain of lamin A/C; source: E. coli BL21* (DE3), purified (glutathione beads, thrombin cleavage, gel filtration)
T1 sequence (looked up): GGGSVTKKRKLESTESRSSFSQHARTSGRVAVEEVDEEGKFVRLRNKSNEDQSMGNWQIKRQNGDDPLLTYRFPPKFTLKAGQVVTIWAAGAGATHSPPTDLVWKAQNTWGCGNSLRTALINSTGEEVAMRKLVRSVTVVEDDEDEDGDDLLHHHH
The experiment in a line: NMR titration; 2D 1H-15N HSQC of 15N-labelled lamin A/C Ig-fold (80 uM; 160 uM in one sample) with unlabelled BAF at ratios 1:1 and 1:2; 50 mM HEPES pH 7.4, 150 mM NaCl, 293 K; peak intensity ratios I/Io. The settings on record: both partners purified.

Series [2] has as its target T1, lamin A/C Ig-fold domain (aa 411-566). In words: ITC; VP-ITC; 100 or 200 uM lamin A/C Ig-fold in the syringe, 20 uM BAF WT or 40 uM BAF A12T in the cell; 50 mM Hepes pH 7.4, 150 mM NaCl, 288 K; stoichiometry set to 0.5 in the fit; each experiment done twice. The following applies: both partners purified. Background: In ITC the heat of successive injections is recorded.

Series [3] concerns the molecule itself. The experiment in a line: crystal structure; BAF A12T-lamin A/C Ig-fold complex recovered after ITC (50 mM Hepes pH 7.4, 150 mM NaCl), about 20 mg/ml; sitting drop, 0.1 M bicine pH 9, 3 M ammonium sulfate; 1.6 A.
Series [4] has as its target T2, BAF A12T (barrier-to-autointegration factor A12T, purified cysteine-free construct) (human, UniProt O75531 1-89, M1G | A12T | C67A | C77A | C80A | C85A).
T2 sequence: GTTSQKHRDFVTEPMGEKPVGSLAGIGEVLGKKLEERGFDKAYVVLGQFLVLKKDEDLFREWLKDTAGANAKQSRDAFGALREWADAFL
The experiment in a line: ITC.

The target in series [5] is T3, BAF WT (barrier-to-autointegration factor, purified cysteine-free construct) (human, UniProt O75531 1-89, M1G | C67A | C77A | C80A | C85A).
T3 sequence: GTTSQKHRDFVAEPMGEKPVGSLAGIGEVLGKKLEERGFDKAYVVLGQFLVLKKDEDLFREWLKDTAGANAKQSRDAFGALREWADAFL
The experiment in a line: ITC.

Series [6] deals with T2, BAF A12T (barrier-to-autointegration …). In words: ITC; experiment 1.
Series [7] concerns the target T3, BAF WT (barrier-to-autointegration …). The experiment in a line: ITC; experiment 1.
Series [8] deals with T2, BAF A12T (barrier-to-autointegration …). The experiment in a line: ITC; experiment 2.
Series [9] deals with T3, BAF WT (barrier-to-autointegration …). The experiment in a line: ITC; experiment 2.

A word on the Kd: it is the equilibrium constant for the complex coming apart. A low value points to a tighter complex. Broadly, the stoichiometry N is a count of units in the complex or per binding partner.

B1: BAF WT (barrier-to-autointegration factor, purified cysteine-free construct) (natural protein, human, UniProt O75531 1-89, looked up)
chain: GTTSQKHRDFVAEPMGEKPVGSLAGIGEVLGKKLEERGFDKAYVVLGQFLVLKKDEDLFREWLKDTAGANAKQSRDAFGALREWADAFL
notes: human barrier-to-autointegration factor (BAF, 89 amino acids); after tag cleavage the first residue is G instead of M; gene synthesized by Genscript in pETM13; also called BAF WT dimer; not shown: His8, N-terminal, cleaved
For B1, in [1], the “percent of the initial NMR signals of the Ig-fold left at 1:1 ratio” value was 27% and the “percent of the initial NMR signals of the Ig-fold left at 1:2 ratio” value is 4%. This molecule had an equilibrium dissociation constant (Kd) in [2] of 2.7 ± 1.2 µM.

B2: BAF A12T (barrier-to-autointegration factor A12T, purified cysteine-free construct) (natural protein, human, UniProt O75531 1-89, looked up)
chain: GTTSQKHRDFVTEPMGEKPVGSLAGIGEVLGKKLEERGFDKAYVVLGQFLVLKKDEDLFREWLKDTAGANAKQSRDAFGALREWADAFL
notes: human barrier-to-autointegration factor (BAF, 89 amino acids); made by mutagenesis of the BAF WT expression vector (all cysteines to alanine, M1G after tag cleavage) with the NGPS mutation A12T; PDB 6GHD holds the parent (BAF WT); PDB 7Z21 holds this mutant; also called BAF A12T dimer; not shown: His8, N-terminal, cleaved
As for B2, the “stoichiometry N” value in series [3] amounted to 2. Besides, in series [1], the “decrease of NMR signal intensity of the Ig-fold at 1:1 ratio” value was 43% and the “decrease of NMR signal intensity of the Ig-fold at 1:2 ratio” value worked out at 66%. The same molecule yielded a dissociation constant (Kd) in [2] of 33 ± 4 µM.

B3: lamin A/C Ig-fold domain (aa 411-566) (domain or fragment)
chain: GGGSVTKKRKLESTESRSSFSQHARTSGRVAVEEVDEEGKFVRLRNKSNEDQSMGNWQIKRQNGDDPLLTYRFPPKFTLKAGQVVTIWAAGAGATHSPPTDLVWKAQNTWGCGNSLRTALINSTGEEVAMRKLVRSVTVVEDDEDEDGDDLLHHHH
Take B3: the dissociation constant Kd in [4] came out at 24 µM; in series [5], 2.3 µM; in series [6], 24 µM; in series [7] it was 2.3 µM; in [8], 42 µM; in series [9], 3.1 µM.

(Values after paper PMC9458464, “The BAF A12T mutation disrupts lamin A/C interaction, impairing robust repair of nuclear envelope ruptures in Nestor–Guillermo progeria syndrome cells” (Nucleic Acids Research, 2022).)
